# Measurements taken from patent US20210206851A1 (MacroGenics, published 2021).
# Assays:
# [1] = target: T1, soluble human LAG-3 fusion protein (extracellular domain of human LAG-3 fused to murine IgG2a) (human; murine, UniProt P18627 23-450); assay: SPR (Biacore); human LAG-3 ECD-murine IgG2a fusion captured on Fab2 goat-anti-mouse Fc, antibody in solution
# T1 construct: also called human LAG-3-murine IgG2a fusion protein; not shown: murine IgG2a
# T1 sequence: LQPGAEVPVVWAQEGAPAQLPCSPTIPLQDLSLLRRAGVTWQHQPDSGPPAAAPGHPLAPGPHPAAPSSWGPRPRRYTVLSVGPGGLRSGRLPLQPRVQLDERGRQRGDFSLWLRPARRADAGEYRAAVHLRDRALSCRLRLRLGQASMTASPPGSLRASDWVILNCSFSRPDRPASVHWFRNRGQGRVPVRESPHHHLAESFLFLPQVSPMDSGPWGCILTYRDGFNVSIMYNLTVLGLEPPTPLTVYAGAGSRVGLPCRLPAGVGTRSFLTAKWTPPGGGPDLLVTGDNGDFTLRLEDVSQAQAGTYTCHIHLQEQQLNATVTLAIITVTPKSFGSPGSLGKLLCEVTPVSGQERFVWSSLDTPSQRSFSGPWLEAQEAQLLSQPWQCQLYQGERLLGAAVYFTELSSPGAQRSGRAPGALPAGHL
# [2] = target: T2, His-tagged soluble human LAG-3 (shLAG-3-His) (human, UniProt P18627 23-450); assay: ELISA, blocking; antibody mixed with soluble human LAG-3-His (0.2 ug/ml), binding to immobilized MHC class II
# T2 construct: also called soluble human LAG-3-His fusion protein; extracellular domain of human LAG-3 fused to a His tag; not shown: His tag
# T2 sequence: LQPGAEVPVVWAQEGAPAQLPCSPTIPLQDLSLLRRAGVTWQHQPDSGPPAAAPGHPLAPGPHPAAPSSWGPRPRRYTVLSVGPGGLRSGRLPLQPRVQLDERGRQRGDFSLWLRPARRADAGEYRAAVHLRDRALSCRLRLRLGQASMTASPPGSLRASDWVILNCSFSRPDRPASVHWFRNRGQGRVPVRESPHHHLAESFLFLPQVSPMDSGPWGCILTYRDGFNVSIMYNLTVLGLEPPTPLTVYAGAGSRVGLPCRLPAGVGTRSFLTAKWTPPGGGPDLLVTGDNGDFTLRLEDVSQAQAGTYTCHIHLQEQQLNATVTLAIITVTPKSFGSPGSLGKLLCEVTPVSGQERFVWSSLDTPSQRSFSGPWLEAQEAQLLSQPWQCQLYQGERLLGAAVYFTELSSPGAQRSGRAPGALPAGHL
# [3] = target: T3, soluble cynomolgus monkey LAG-3 fusion protein (extracellular domain of cynomolgus monkey LAG-3 fused to … (cynomolgus monkey; murine); assay: SPR (Biacore); cynomolgus LAG-3 ECD-murine IgG2a fusion captured on Fab2 goat-anti-mouse Fc, antibody in solution
# T3 construct: extracellular domain; also called cynomolgus LAG-3-murine IgG2a fusion protein
# [4] = target: T2, His-tagged soluble human LAG-3 …; assay: SPR (Biacore); antibody captured on immobilized Protein A, shLAG-3-His in solution
# [5] = target: T2, His-tagged soluble human LAG-3 …; assay: SPR (Biacore); antibody captured on immobilized Fab2 goat anti-human Fc, shLAG-3-His in solution
# [6] = target: T4, soluble human LAG-3-Fc fusion protein (shLAG-3-Fc) (human, UniProt P18627 23-450, biotinylated in the Daudi cell assay); assay: flow cytometry, blocking of biotinylated soluble human LAG-3-Fc binding to MHC class II on Daudi cells
# T4 construct: also called biotinylated-soluble human LAG-3-Fc fusion protein; not shown: Fc portion; detected with goat anti-human Fc gamma
# T4 sequence: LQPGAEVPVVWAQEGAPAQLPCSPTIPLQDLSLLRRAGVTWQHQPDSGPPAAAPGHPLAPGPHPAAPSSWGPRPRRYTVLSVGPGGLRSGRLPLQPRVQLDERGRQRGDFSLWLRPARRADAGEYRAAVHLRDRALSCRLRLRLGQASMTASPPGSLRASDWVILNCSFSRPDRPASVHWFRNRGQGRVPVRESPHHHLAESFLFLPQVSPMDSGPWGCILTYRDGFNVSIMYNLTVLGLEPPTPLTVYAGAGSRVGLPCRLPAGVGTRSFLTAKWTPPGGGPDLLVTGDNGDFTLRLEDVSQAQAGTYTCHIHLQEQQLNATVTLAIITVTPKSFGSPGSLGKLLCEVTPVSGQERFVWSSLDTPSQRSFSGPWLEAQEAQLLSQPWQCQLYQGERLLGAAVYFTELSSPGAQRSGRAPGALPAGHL
# [7] = target: T2, His-tagged soluble human LAG-3 …; assay: SPR (Biacore); antibody captured on immobilized Fab2 goat-anti-mouse Fc, shLAG-3-His in solution
# [8] = target: T4, soluble human LAG-3-Fc fusion protein …; assay: flow cytometry, blocking of biotinylated soluble human LAG-3-Fc binding to MHC class II on Daudi cells; remark: listed apart in the source
# [9] = target: T4, soluble human LAG-3-Fc fusion protein …; assay: ELISA, blocking; antibody mixed with soluble human LAG-3-Fc (5 ug/mL), binding to immobilized MHC class II
# [10] = target: T2, His-tagged soluble human LAG-3 …; assay: SPR (Biacore); antibody captured on immobilized Protein G, shLAG-3-His in solution
binder,measurement,setting,value
"hLAG-3 mAb 6 (1.1) (antibody, V domains shown, also called hLAG-3 6 (1.1); humanized LAG-3 mAb 6) VH: QVQLVQSGAEVKKPGASVKVSCKASGYTFTDYNMDWVRQAPGQGLEWMGDINPDNGVTIYNQKFEGRVTMTTDTSTSTAYMELRSLRSDDTAVYYCAREADYFYFDYWGQGTTLTVSS VL: DIQMTQSPSSLSASVGDRVTITCRASQDVSSVVAWYQQKPGKAPKLLIYSASYRYTGVPSRFSGSGSGTDFTLTISSLQPEDFATYYCQQHYSTPWTFGGGTKLEIK",Kd,[1],< 0.1 nM
same,IC50 (read off the curve),[2],~0.3 nM
same,Kd,[3],3.7 nM
"hLAG-3 mAb 1 (1.4) (constant region not stated) (antibody, V domains shown, also called hLAG-3 1 (1.4); humanized hLAG-3 1 (1.4)) VH: QVQLVQSGAEVKKPGASVKVSCKASGYTFTNYGMNWVRQAPGQGLEWMGWINTYTGESTYADDFEGRFVFSMDTSASTAYLQISSLKAEDTAVYYCARESLYDYYSMDYWGQGTTVTVSS VL: DIVMTQTPLSLSVTPGQPASISCKSSQSLLHSDAKTYLNWLLQKPGQPPERLIYLVSELDSGVPDRFSGSGSGTDFTLKISRVEAEDVGVYYCWQGTHFPYTFGGGTKVEIK",Kd,[1],< 0.29 nM
same,IC50 (read off the curve),[2],~0.3 nM
same,Kd,[3],< 0.53 nM
"hLAG-3 mAb 1 (1.2), human IgG1 (AA) (antibody, V domains shown, also called hLAG-3 1 (1.2)) VH: QVQLVQSGAEVKKPGASVKVSCKASGYTFTNYGMNWVRQAPGQGLEWMGWINTYTGESTYADDFEGRFVFSMDTSASTAYLQISSLKAEDTAVYYCARESLYDYYSMDYWGQGTTVTVSS VL: DIVMTQTPLSLSVTPGQPASISCKSSQSLLHSDGKTYLNWLLQRPGQSPERLIYLVSELDSGVPDRFSGSGSGTDFTLKISRVEAEDVGVYYCWQGTHFPYTFGGGTKVEIKR",Kd,[4],0.01 nM
"hLAG-3 mAb 1 (1.1), human IgG1 (AA) (antibody, V domains shown, also called hLAG-3 1 (1.1)) VH: QVQLVQSGAEVKKPGASVKVSCKASGYTFTNYGMNWVRQAPGQGLEWMGWINTYTGESTYADDFEGRFVFSMDTSASTAYLQISSLKAEDTAVYYCARESLYDYYSMDYWGQGTTVTVSS VL: DIVMTQTPLSLSVTPGQPASISCKSSQSLLHSDGKTYLNWLLQKPGQSPERLIYLVSELDSGVPDRFSGSGSGTDFTLKISRVEAEDVGVYYCWQGTHFPYTFGGGTKVEIKR",Kd,[4],0.04 nM
"hLAG-3 mAb 1 (1.4), human IgG1 (AA) (antibody, also called hLAG-3 mAb 1 (1.4)^c, e) heavy: not shown light: DIVMTQTPLSLSVTPGQPASISCKSSQSLLHSDAKTYLNWLLQKPGQPPERLIYLVSELDSGVPDRFSGSGSGTDFTLKISRVEAEDVGVYYCWQGTHFPYTFGGGTKVEIKRTVAAPSVFIFPPSDEQLKSGTASVVCLLNNFYPREAKVQWKVDNALQSGNSQESVTEQDSKDSTYSLSSTLTLSKADYEKHKVYACEVTHQGLSSPVTKSFNRGEC",Kd,[5],0.04 nM
"hLAG-3 mAb 1 (2.2), human IgG1 (AA) (antibody, V domains shown, also called hLAG-3 1 (2.2)) VH: QVQLVQSGAEVKKPGASVKVSCKASGYTFTNYGMNWVRQAPGQGLEWMGWINTYTGESTYADDFEGRFVFSMDTSASTAYLQISSLKAEDTAVYFCARESLYDYYSMDYWGQGTTVTVSS VL: DIVMTQTPLSLSVTPGQPASISCKSSQSLLHSDGKTYLNWLLQRPGQSPERLIYLVSELDSGVPDRFSGSGSGTDFTLKISRVEAEDVGVYYCWQGTHFPYTFGGGTKVEIKR",Kd,[4],0.3 nM
"hLAG-3 mAb 1 (1.4), IgG4 (S228P) (antibody, also called hLAG-3 mAb 1 (1.4)^c, f) heavy: not shown light: DIVMTQTPLSLSVTPGQPASISCKSSQSLLHSDAKTYLNWLLQKPGQPPERLIYLVSELDSGVPDRFSGSGSGTDFTLKISRVEAEDVGVYYCWQGTHFPYTFGGGTKVEIKRTVAAPSVFIFPPSDEQLKSGTASVVCLLNNFYPREAKVQWKVDNALQSGNSQESVTEQDSKDSTYSLSSTLTLSKADYEKHKVYACEVTHQGLSSPVTKSFNRGEC",Kd,[5],0.05 nM
"LAG-3 mAb 6 (antibody, V domains shown, Murine monoclonal antibody) VH: EVLLQQSGPELVKPGASVKIPCKASGYTFTDYNMDWVKQSHGESLEWIGDINPDNGVTIYNQKFEGKATLTVDKSSSTAYMELRSLTSEDTAVYYCAREADYFYFDYWGQGTTLTVSS VL: DIVMTQSHRFMSTSVGDRVSITCKASQDVSSVVAWYQQKPGQSPKLLIFSASYRYTGVPDRFTGSGSGTDFTFTISSVQAADLAVYYCQQHYSTPWTFGGGTKLEIK",IC50 (read off the curve),[6],~200 ng/mL
same,Kd,[7],0.02 nM
"LAG-3 mAb A (antibody, V domains shown, also called 25F7; BMS-986016) VH: QVQLQQWGAGLLKPSETLSLTCAVYGGSFSDYYWNWIRQPPGKGLEWIGEINHNGNTNSNPSLKSRVTLSLDTSKNQFSLKLRSVTAADTAVYYCAFGYSDYEYNWFDPWGQGTLVTVSS VL: EIVLTQSPATLSLSPGERATLSCRASQSISSYLAWYQQKPGQAPRLLIYDASNRATGIPARFSGSGSGTDFTLTISSLEPEDFAVYYCQQRSNWPLTFGQGTNLEIK",IC50 (read off the curve),[8],~3 ng/mL
same,IC50 (read off the curve),[2],~0.2 nM
same,IC50 (read off the curve),[6],~100 ng/mL
"LAG-3 mAb 3 (antibody, V domains shown, Murine monoclonal antibody) VH: EVRLQQSGPELVKPGASVKISCKASGYTFTDYNIHWVRQSHGQSLEWIGYIYPYNGDTGYNQKFKTKATLTVDNSSNTAYMELRSLASEDSAVYYCTRWSRNYFGPWFAYWGQGTLVTVSA VL: DIVLTQSPTSLAVSLGQRATISCKASQSVDYDGDSYMNWYQQKPGQPPKLLIYAASNLESGIPARFSGSGSGTDFTLNIHPVEEEDAATYYCQQSSEDPLTFGAGTKLELK",IC50 (read off the curve),[8],~3 ng/mL
same,IC50 (read off the curve),[9],~30 nM
same,Kd,[7],4.4 nM
"LAG-3 mAb 2 (antibody, V domains shown, Murine monoclonal antibody) VH: EVQLQQSGPELVKPGASVKISCKTSGYTFTDYNIHWLRQSHGESLEWIGYIYPYSGDIGYNQKFKNRATLTVDNSSSTAYMDLRSLTSEDSAVFYCARWHRNYFGPWFAYWGQGTPVTVSA VL: DIVLTQSPASLAVSLGQRATISCKASQSVDYDGESYMNWYQQKPGQPPKLLIYVVSNLESGIPARFSGSGSGTDFTLNIHPVEEEDAATYYCQQSSEDPLTFGAGTKLELK",IC50 (read off the curve),[8],~3 ng/mL
same,Kd,[7],1.9 nM
"LAG-3 mAb 4 (antibody, V domains shown, Murine monoclonal antibody) VH: EVQLHQSGPELVKPGASVKISCKTSGYTFTDYNIHWVKQSHGKSLEWIGYIYPYNGDAGYNQNFKTKATLTVDNSSSTAYMELRSLTSEDSAVYYCARWNMNYFGPWFAYWGQGTLVTVSA VL: DIVLTQSPASLAVSLGQRATISCKASQSVDYDGVTYINWYQQKPGQPPKLLIFAASNLESGIPARFSGSGSGTDFTLNIHPVEEEDAATYYCQQSNEDPLTFGAGTKLELK",IC50 (read off the curve),[8],~3 ng/mL
same,Kd,[7],0.8 nM
"LAG-3 mAb 5 (antibody, V domains shown, Murine monoclonal antibody) VH: EVQLQQSGPELVKPGASVKISCKASGYTFTDYNIHWVKQSPGKSLEWIGYIYPYSGDFGYNQKFKSKATLTVDNSSSTAYMDLRSLTSEDSAVFYCARWHRNYFGPWFAYWGQGTLVTVSA VL: DIVLTQSPASLAVSLGQRATISCKASQSVDYDGESYMNWYQQKPGQPPKLLIYVVSNLESGIPARFSGSGSGTDFTLNIHPVEEEDAATYYCQQSSEDPLTFGAGTKLELK",IC50 (read off the curve),[8],~3 ng/mL
same,IC50 (read off the curve),[9],~30 nM
same,Kd,[7],0.9 nM
"LAG-3 mAb 1 (antibody, V domains shown, Murine monoclonal antibody; also called murine anti-human antibody LAG-3 mAb 1) VH: QIQLVQSGPELKKPGETVKISCKASGYTFRNYGMNWVKQAPGKVLKWMGWINTYTGESTYADDFEGRFAFSLGTSASTAYLQINILKNEDTATYFCARESLYDYYSMDYWGQGTSVTVSS VL: not shown",IC50 (read off the curve),[8],~3 ng/mL
same,IC50 (read off the curve),[9],~20 nM
same,IC50 (read off the curve),[6],~100 ng/mL
same,Kd,[7],0.013 nM
same,Kd,[10],0.01 nM
